Reference: PMC9769802

Biological target: recombinant fusion p30-mFc protein (ASFV p30 fused to mouse IgG1 Fc) (African swine fever virus (strain not stated)) (UniProt P34204)
Test: SEC-MALS

Substance: recombinant fusion p30-mFc protein (ASFV p30 fused to mouse IgG1 Fc) (from UniProt P34204 1-204) (Fc fusion)
- stoichiometry N: 2
